These results are taken from a protein production outcome set (Wang et al. 2014).

This data set is described as follows: label from the status in PepcDB records.
In the case of “MNGGSSIKVLGLVGSPKVDGNTAKMVDAILEGAAENGAETVIYNLASLDIKGCDACHRCQETGCCAIDDDMQELYRQIEEADAVVLGSPVYMWQMTAQTKLLIDRMTAFLKPNFSSRLDHKKLILVFTQGIPDRDAFNSYFEYTAGVLYYLGFDVLETIVAAGTDNLEVAFRPRLLEKSRELGKLISASNPVSPRLEHHHHHH”, the protein production result was “failed”.
On to “MNGGTFTPGKEKDRAGIYFNFKTTAEERVSIGDRGTVALPVVMSWGEPKTFVSISSIEDLNKKVGLNIDDPSLLLFREAKKNAQTVLLYRLNTGAPAKAQIGETLSVTAKYGGEKGNDISIRISENVLDSKKFDVTTFVGTDEADRQTVKTAEELTANAYVAFQGEGALELTAGTKLSGGENGTASVADYTAFLDAAETEYFNTIALPVADNEQLKATFAAFIKRLRDKQGQKVQGVVADYAGDYEGIINVTGGVVLEDGTEITPEKATAWVAGASAGATFNQSLTFVEYEGAVDVLNRLDEDQVIERLKKGEFLFTFDARDQSVSVEKDINSLTSFTADKNKKFSKNKIIRVLDGVNNDLTRELKALIKARKASGSDIPASDDGLQYVKTLIIQYMTALQEAGGITGFDSESDIAITLNEDRDGFLIDLAVQPVDAAEKFYFNVEVK”, for which the protein production entry was “failed”.
Regarding “MNGYVYLVGAGPGDEGLITKKAIECLKRADIVLYDRLLNPFFLSYTKQTCELMYCGKMPKNHIMRQEMINAHLLQFAQEGKIVVRLKGGDPSIFGRVGEEAETLAAANIPYEIVPGITSSTAASSYAGIPLTHRNYSNSVTLLTGHAKGSLTDHGKYNSSHNSDTIAYYMGIKNLPTICKNLRQAGKKEDTPVAVIEWGTTGKQRVVTGTLSTIVSIVKNENISNPSMTIVGDVVSLRDQIAWKEHKPLHGKKVLFTSATNKTSVMKQKLQEAGAEIYQIPTFKKEEYTLTLEQIIEIFNVNRLVFCSAESVEILMQSCSKYKKDIRSLQAELQHMNVATQEKLMQYGLLSKEAKFSSDTTVYLGRNINRIAFIQEKIGAGSYMMTHKYTIDHRFDEVHSRMLSEFLWDSIVFEGRASIDTFLAEVKRLGFLDIVTLPFSYTDVPTLRYANKVGFHNIDHQLQETLMQKDMVRQ”, the protein production entry is reported as “failed”.
For the sequence “MNHFTPAQQRKALGYLVLFHLVIIASSNYLVQIPFTIFGFHTTWGAFTFPFIFLATDLTVRIFGAGLARKIIFLVMLPALAVSYLLSVVFFEGQYQGLAPLSEFNLFVARIAIASFMAYLLGQIMDVHVFNRLRQMKQWWVAPTCSTLFGNALDTIAFFSIAFYQSSDPFMAEHWTEIALVDYTFKLIISLGLFVPMYGVLLNYLIKKLTAVNPNFAMASAKA”, the protein production entry was “failed”.
With “MNHLISVGALESFLVAISVLFLGHFINAKLPILKKFNIPEPIVGGLIVACIITALHFNGVDLEFDLPLQNTFMLMFFATVGLAANYTQLMKGGAKVFIFLAVASFYIIIQNGVGVSLAAALGLDPLMGLIAGSITLSGGHGTGAAWSQTFQDVYGLNNVLEIAMASATFGLIIGGIIGSPVAQRLVEKHGIESEYGRGGRDAKTHEKFPELVTYNEYEEDKVTAKKVVEKLFFLLICVTGAKYVEQWVSTYEISWLMIPDFVYALFIGVIITNFLEVTKIRKLDAETVDMLGTVSLSLFLAMALMSLKLWNIFDLAIPFLVILAIQSVILAIFTYYVTFKVMGSNYDAAVISGGHCGFGLGATPTAVMNMGSIVNRFGPSPQAFMVVPIVGAFFIDIVNLIILQGYISFLG” the entry was “failed”.
As for “MNHLPEKMRPYRDLLEKSAKEYVKLNVRKGKTGRYDSKIAGDPYFPKHETYPTDENGQPMKLLAQINFSHIPQLDGYPSSGILQFYISVHDDVYGLNFDDRCEQKNFRVIYFENIVENDDELVSDFSFIGTGECDFPILSEAAVEPVKSSEWVLPTDFQFEQYTGMETMEFFGQFGEDEEDIYNELAENGFGHKIGGYASFTQHDPREYAYKEHTIMLLQIDSDDDIDSMWGDVGIANFFITPEDLRKKDFSNVLYNWDCS”, the protein production entry is recorded as “not failed”.
In the case of “MNHTSDTALLIVNLGTPEAPTAAAVRRYLGEFLSDRRVVSIPPLFWKPLLHMVILPIRGPRSASKYAKVWLQEGSPLSVYTRRIAEGLTQHLPDWRVAWAMRYGAPALTKALDALQAQQVRRIVILPLYPQYSTTTTASVQDVVEAWCKRTPQVQVECIQDYAEDPAWVAAVAASIRRHWQAHGRSEKLMFSFHGLPQRVANNGDPYPQRCQVSASLIAAALNLNESEWVLGYQSRFGAERWLQPYAEPTLWALAESGIRRFDLVCPGFSVDCLETLEEVALGFSETLAARGATMRYIPCLNDDPAHVQALAGLAQRALP”, the protein production result was “failed”.
As for “MNIAEQMKDVLKEEIKAAVLKAGLAEESQIPNVVLETPKDKTHGDYSTNMAMQLARVAKKAPRQIAEEIVAHFDKGKASIEKLDIAGPGFINFYMNNQYLTKLIPSVLEAGEAYG”, the protein production entry is listed as “failed”.
As for “MNIETLMIKNPPILSKEDRLGSAFKKINEGGIGRIIVANEKIEGLLTTRDLLSTVESYCKDSCSQGDLYHISTTPIIDYMTPNPVTVYNTSDEFTAINIMVTRNFGSLPVVDINDKPVGIVTEREFLLLYKDLDEIFPVKVFMSTKVQTIYKEVRLDQAVKLMLRRGFRRLPVIDDDNKVVGIVTVVNAIKQLAKAVDKLDPDYFYGKVVKDVMVTNLVTIDELASVNRAAAEMIVKRIGSLLILNKDNTIRGIITERDLLIALHHILVMEKFKEKL”, the protein production result is on record as “not failed”.
Regarding “MNIILLSGKKSEAQPGDGEYPEYLCEYNGKPLIHTLIDNCAALEPRRIICTFSNDDVIGLHLRNMVQQMHPSASVLPVHNITQGAACTALLASGQIDNDDELLILSVSDFLDIELREVLRVFREANEDAGVVIFNSLHPRYSFARLDSDQRVIEAAEKNPISPHAIAGMYWFKSGSLFVSAAKEMIRKDARVNDHFYIAPALNELVLLHKKIGAYRIEPRQYRPLKTQNQLHAFEMADIR”, the protein production entry is reported as “failed”.
As to “MNIILNVFLIFVSAILTKLFALFAQHTKLIDIPNERNLHSRPTVRGGGLVFIGLSLFCWFFICNSQFFLTLDQFIFSIAIIFIATISFIDDFYNLSVTIRFFFQCLIAFLIVIFILPSQLDFGLFLFENTYLIAFFLFFAVIWAINHFNFMDGLDGFCASQAIFLLAAYALFFNSAGSLIYQDFCLILISSLAGFLIFNFPPAKIFMGDVGSASLGLITFFIAIIAQKNYQIPILYWFILNSLFLFDSTVTLIRRIIKHEKWFSPHKKHAYQRLKQLGINSRFILLGQAIINGSLFLSVMFMHFQFFNLKNLIIIQLCYLSAIYFFIEKKYPME”, the protein production entry is “failed”.
As to “MNINIEDLIFSLDIGTRTVIGTVGSIKDKKFSVIAEKHTEHEERAMVDGQIHDINLVARAVNKVKSQIEEELGFELKDVAIAAAGRFLRTTAVRSELNIDEDKEIDKDVIRGLELTAVKKAQDEVNKETEGKLYCVGYSVKNYFLNGYAISNLLSHKGNSIAVDVIATFLPRSIVESLYAVMNKVNLNVKSLTLEPIAAMEAAVPKNLRLLNIALLDVGAGTSDIAISSKDTISAYGMVPFAGDEITEVIAQNYLVDFNTAENIKRSCNVDTEIKYTDVLGIENTIKSEEVIKLIQPTVQKLAEEVANKIIELNGEKSPNAVFIVGGGAHTPMLKDLLAENLKIQPQRLAIKGRESVTDCICTDNSLGSTGVTVLGIALVAIRRFGNDFIDVILNDNIISLFNARVHTVKDVVVQAGVNPKLLIGKNGKNVRFILNGVKRVAFGTVAKNAEIRINGLIANIDSEVKENDKIEIKYAENGIDASPIIKDYVKNLYSLGFFIDDEVVNLEPIFIINGNKVTIDTEISEGDEVETVYPSKLIHYIRYYDSDLNKEYYINNIKLDENYDIKEGDRIYTKPKEEEQEVEIIPLAEEDKEEQEVVSHPKEIEKEDDDVNTIVVVVNGNPIKMSGKEKYKFVDIFDYFKFDLTQVKGNLVLTLNGEKVSFFDELHDKDIIEVKWE”, the protein production entry was “failed”.
Consider “MNIPVEVEVAEVLTDSAATGIFEPGDKLLSIDGTAISTPGDAQTIVRSKAPGDEITISYERNDAESQATITLREHPLEHHHHHH”, for which the protein production result is “failed”.
As to “MNIQALLSEKVSQALIAAGAPADCEPQVRQSAKVQFGDYQANGVMAVAKKLGMAPRQLAEQVLSHLDLNGIANKVEIAGPGFINIFLDPAFLADNVNRALQSERLG”, the protein production entry is recorded as “not failed”.
Consider “MNIRERKRKHLEACLEGEVAYQKTTTGLEGFRLRYQALAGLALSEVDLTTPFLGKTLKAPFLIGAMTGGEENGERINLALAEAAEALGVGMMLGSGRILLERPEALRSFRVRKVAPKALLIANLGLAQLRRYGRDDLLRLVEMLEADALAFHVNPLQEAVQRGDTDFRGLVERLAELLPLPFPVMVKEVGHGLSREAALALRDLPLAAVDVAGAGGTSWARVEEWVRFGEVRHPELCEIGIPTARAILEVREVLPHLPLVASGGVYTGTDGAKALALGADLLAVARPLLRPALEGAERVAAWIGDYLEELRTALFAIGARNPKEARGRVERV”, for which the protein production entry is “not failed”.
With “MNISEINGFEVTGFVVRTTNADEMNPMTAKIGNLWEKFYLNAAPKLTDKSKVYGLYTNYESDFTGAFDVIACSDTLSPQLLSESVKTKVSSGKYVTFSATGEMPQVVIDLWNEVWNYFASEHCPHKRAYTTDFEYYKSANTVEISIAVR” the entry was “not failed”.
As to “MNIVIAVGILVTLVTGIPVLLQLLKGHPRGLIICFLAEMWERFSYYGMRAILIFYLTQHFLFDPKAASGHYGSYTALVYLVPLIGGFLADKWLGTRKAVAFGAVLLVAGHLAMAIEGKPAVQTLTYQGATYEFQAEGRGQNREAKLVVDGKAYEVAATKVGDFEIKGLPANAPLPAVLPKADYKLDVAGRDPLYLNIFWFSLSLIILGVGFLKPNISTIVGQLYPQGDPRRDPGFTLYYYGINLGSFWASILCGLLGVNVGWWAGFGLAGVGMLAGFIVFVLGKPWLDGKAEPPEPKVLKEKVAGPINRELAIYGLSLVGLVGIFFLVQFNAIVGVALNIGILASLGYIGFFMFTKCAKEERERLALAVFLIFGAVVFWTLFEQAGSSLSLFAATNVQLDLVREPLRLFSGAVTLATPDQLAKAGIDAASTFWVDTSFNAPQTQALNAGWILIFAPVFAAVWTFLGARGKDPNPVIKFGLALIQVGAGFLLLQWGSTFADGAFKLPLIFLVLMYMLHTTGELCMSPVGLSQMTKLSPASVVSFMMAVWFLAVAIAQWVGGKIAGLAATETVGGQVLDPGAALAASLKVFNIIGLVAVAIGIGFLLLSPVLKKWSHGADNVGAPKKA”, the protein production result is recorded as “failed”.
For “MNIVLFHSTLGPRPAVRQAADRLRDAGHQVWTPDLFEGRTFDTVEEGMAHQDGIGREELLKRAVLAAAPYSERGLVYAGFSLGASIAQTLALGDHRARGLLLLHGTSDLAPNASVDELPVQLHVAEPDPFETDDWLSAWYLQMGRIGADVEVHRYPGAGHLYTDPGLDDYDAEAAEATWRVALGFLESLQEAQAGE”, the protein production result was “failed”.
“MNIVSQLSPVTLSPELIARFTAIVGDKHALTDPLELEAYITEERNLYRGHSPLVLRPGSTEEVVAICKLANEARVALVPQGGNTGLVGGQTPHNGEVVISLKRMDKIREIDTSSNTITVEAGAILQRVQEKAAEVDRLFPLSLGAQGSCTIGGNLSTNAGGTAALAYGLARDMALGVEVVLADGRVMNLLSKLKKDNTGYDLRDLFIGAEGTLGIITAATLKLFPKPRAVETAFVGLQSPDDALKLLGIAQGEAAGNLTSFELIAETPLDFSVRHANNRDPLEARYPWYVLIELSSPRDDARAALESILERGFEDGIVVDAAIANSVQQQQAFWKLREEISPAQKPEGGSIKHDISVPVAAVPQFIEQANAAVVALIPGARPVPFGHLGDGNIHYNVSQPVGADKAEFLARWHDVSQVVFEVVLRLGGSISAEHGIGVMKRDELAEVKDKTAIELMRSIKALLDPHGIMNPGKVV”: the protein production result was “not failed”.
